From paper PMC8254419

Biological target: Aβ_(1-42)
Experiment: thioflavin T fluorescence aggregation kinetics

k+k2 (product of the rate constants of elongation and secondary nucleation): 1e+11 M^−3s^−2
Substance: Aβ_(1-42) (peptide)
